US20030236197A1 (PRAECIS PHARMACEUTICALS, published 2003)
Square brackets hold non-standard residues; d marks the D form. Ends that are not written are not given here. * marks the point of attachment. dPhe(F5) = N[C@H](Cc1c(F)c(F)c(F)c(F)c1F)C(=O)O; dPhe(4-F) = N[C@H](Cc1ccc(F)cc1)C(=O)O; NHiPr = CC(C)N*

B1: PPI-1125: 2 TFA • H-lvf-NH-NH-fvl-H (peptide)
peptide: H-[dL]-[dV]-[dF]
modifications: also: dimer: C-termini of two tripeptides joined through hydrazine (-NH-NH-), 2 TFA salt
B2: PPI-970: TFA • N-isopropyl-(Gaffvl)-NH2 (peptide)
peptide: G[dA][dF][dF][dV][dL]-NH2
modifications: not fully specified (N-terminus); printed as N-isopropyl-(Gly-D-Ala-D-Phe-D-Phe-D-Val-D-Leu)-NH2; also: TFA salt

target: T1, Aβ1-40 peptide (monomeric start material of the nucleation assay); assay: cell-based or functional assay

Compared with H-[dL][dF][dK][dV][dL]-NH2 (also: 2 TFA salt) [PPI-1321: 2TFA • H-(lfkvl)-NH2], H-[dL][dF][dPhe(4-F)][dV][dL]-NH2 (also: TFA salt) [PPI-1319: TFA • H-(lf-[p-F]f-vl)-NH2] is higher in “Nucleation assay data (Δ lag) at 0.3 µM compound” value: < 1 ratio of lag time to control for the first, 1 ratio of lag time to control for the second.

In the case of H-[dL][dF][dPhe(F5)][dV][dL]-NH2 (also: TFA salt) [PPI-1320: TFA • H-(lf-[F5]f-vl)-NH2], the “Nucleation assay data (Δ lag) at 0.3 µM compound” value is reported as 1 ratio of lag time to control.

First: H-[dL][dF][dK][dV][dL]-NH2 (also: 2 TFA salt) [PPI-1321: 2TFA • H-(lfkvl)-NH2]
Second: H-[dL][dF][dPhe(4-F)][dV][dL]-NH2 (also: TFA salt) [PPI-1319: TFA • H-(lf-[p-F]f-vl)-NH2]
The “Nucleation assay data (Δ lag) at 1 µM compound” value of the first is lower: < 1 ratio of lag time to control for the first, > 5 ratio of lag time to control for the second.

In the case of H-[dL][dF][dPhe(F5)][dV][dL]-NH2 (also: TFA salt) [PPI-1320: TFA • H-(lf-[F5]f-vl)-NH2], the “Nucleation assay data (Δ lag) at 1 µM compound” value is reported as 3 ratio of lag time to control.

Compared with H-[dL][dF][dK][dV][dL]-NH2 (also: 2 TFA salt) [PPI-1321: 2TFA • H-(lfkvl)-NH2], H-[dL][dF][dPhe(4-F)][dV][dL]-NH2 (also: TFA salt) [PPI-1319: TFA • H-(lf-[p-F]f-vl)-NH2] is higher in “Nucleation assay data (Δ lag) at 3 µM compound” value: < 1 ratio of lag time to control for the first, > 5 ratio of lag time to control for the second.

With H-[dL][dF][dPhe(F5)][dV][dL]-NH2 (also: TFA salt) [PPI-1320: TFA • H-(lf-[F5]f-vl)-NH2] the “Nucleation assay data (Δ lag) at 3 µM compound” value was > 5 ratio of lag time to control.

In order of falling “Nucleation assay data (Δ lag) at 0.6 µM compound (row marked *: measured at 2.5, 1.25 and 0.6 µM)” value:
1. B1  2 ratio of lag time to control
2. {N‑methyl}-[dL][dV][dF][dF][dL]-NH2 (also: TFA salt) [PPI-1019: TFA • N-methyl-(lvffl)-NH2]  2 ratio of lag time to control

B1 and {N‑methyl}-[dL][dV][dF][dF][dL]-NH2 (also: TFA salt) [PPI-1019: TFA • N-methyl-(lvffl)-NH2] cannot be ordered by “Nucleation assay data (Δ lag) at 1.25 µM compound (row marked *: measured at 2.5, 1.25 and 0.6 µM)” value: > 2.5 ratio of lag time to control for the first, > 2.5 ratio of lag time to control for the second.

B1 and {N‑methyl}-[dL][dV][dF][dF][dL]-NH2 (also: TFA salt) [PPI-1019: TFA • N-methyl-(lvffl)-NH2] cannot be ordered by “Nucleation assay data (Δ lag) at 2.5 µM compound (row marked *: measured at 2.5, 1.25 and 0.6 µM)” value: > 2.5 ratio of lag time to control for the first, > 2.5 ratio of lag time to control for the second.

target: T1, Aβ1-40 peptide (monomeric start …); assay: cell-based or functional assay; remark: another data set of the same source

First: {N,N‑dimethyl}-[dA][dF][dF][dV][dL]-NH2 (also: TFA salt) [PPI-913: TFA • N,N-dimethyl-(affvl)-NH2]
Second: {N,N‑dimethyl}-G[dA][dF][dF][dV][dL]-NH2 (also: TFA salt) [PPI-803: TFA • N,N-dimethyl-(Gaffvl)-NH2]
The “Nucleation assay Δ lag at 1.25 µM compound” value of the first is higher: 1 ratio of lag time to control for the first, < 1 ratio of lag time to control for the second.

{N,N‑diethyl}-G[dA][dF][dF][dV][dL]-NH2 (also: TFA salt) [PPI-1005: TFA • N,N-diethyl-(Gaffvl)-NH2] and B2 are the same in “Nucleation assay Δ lag at 1.25 µM compound” value: 1 ratio of lag time to control for the first, 1 ratio of lag time to control for the second.

H-[dL][dV][dF][dF][dA]-NHiPr (also: TFA salt) [PPI-992: TFA • H-(lvffa)-isopropylamide] and H-[dL][dV][dF][dF][dA]-NMe2 (also: TFA salt) [PPI-993: TFA • H-(lvffa)-dimethylamide] are the same in “Nucleation assay Δ lag at 1.25 µM compound” value: 1 ratio of lag time to control for the first, 1 ratio of lag time to control for the second.

First: {N,N‑diethyl}-[dA][dF][dF][dV][dL]-NH2 (also: TFA salt) [PPI-1006: TFA • N,N-diethyl-(affvl)-NH2]
Second: {N‑methyl}-G[dA][dF][dF][dV][dL]-NH2 (also: TFA salt) [PPI-968: TFA • N-methyl-(Gaffvl)-NH2]
The “Nucleation assay Δ lag at 1.25 µM compound” value of the first is lower: 1 ratio of lag time to control for the first, 2 ratio of lag time to control for the second.

Compared with {N,N‑dimethyl}-[dA][dF][dF][dV][dL]-NH2 (also: TFA salt) [PPI-913: TFA • N,N-dimethyl-(affvl)-NH2], {N,N‑dimethyl}-G[dA][dF][dF][dV][dL]-NH2 (also: TFA salt) [PPI-803: TFA • N,N-dimethyl-(Gaffvl)-NH2] is lower in “Nucleation assay Δ lag at 2.5 µM compound” value: 1 ratio of lag time to control for the first, < 1 ratio of lag time to control for the second.

Compared with {N,N‑diethyl}-G[dA][dF][dF][dV][dL]-NH2 (also: TFA salt) [PPI-1005: TFA • N,N-diethyl-(Gaffvl)-NH2], B2 is higher in “Nucleation assay Δ lag at 2.5 µM compound” value: 3 ratio of lag time to control for the first, > 5 ratio of lag time to control for the second.

H-[dL][dV][dF][dF][dA]-NHiPr (also: TFA salt) [PPI-992: TFA • H-(lvffa)-isopropylamide] and H-[dL][dV][dF][dF][dA]-NMe2 (also: TFA salt) [PPI-993: TFA • H-(lvffa)-dimethylamide] are the same in “Nucleation assay Δ lag at 2.5 µM compound” value: 1 ratio of lag time to control for the first, 1 ratio of lag time to control for the second.

Compared with {N,N‑diethyl}-[dA][dF][dF][dV][dL]-NH2 (also: TFA salt) [PPI-1006: TFA • N,N-diethyl-(affvl)-NH2], {N‑methyl}-G[dA][dF][dF][dV][dL]-NH2 (also: TFA salt) [PPI-968: TFA • N-methyl-(Gaffvl)-NH2] is higher in “Nucleation assay Δ lag at 2.5 µM compound” value: 1 ratio of lag time to control for the first, > 5 ratio of lag time to control for the second.

First: {N,N‑dimethyl}-[dA][dF][dF][dV][dL]-NH2 (also: TFA salt) [PPI-913: TFA • N,N-dimethyl-(affvl)-NH2]
Second: {N,N‑dimethyl}-G[dA][dF][dF][dV][dL]-NH2 (also: TFA salt) [PPI-803: TFA • N,N-dimethyl-(Gaffvl)-NH2]
The “Nucleation assay Δ lag at 5 µM compound” value of the first is higher: 1 ratio of lag time to control for the first, < 1 ratio of lag time to control for the second.

First: {N,N‑diethyl}-G[dA][dF][dF][dV][dL]-NH2 (also: TFA salt) [PPI-1005: TFA • N,N-diethyl-(Gaffvl)-NH2]
Second: B2
The “Nucleation assay Δ lag at 5 µM compound” value of the first is lower: 3 ratio of lag time to control for the first, > 5 ratio of lag time to control for the second.

First: H-[dL][dV][dF][dF][dA]-NHiPr (also: TFA salt) [PPI-992: TFA • H-(lvffa)-isopropylamide]
Second: H-[dL][dV][dF][dF][dA]-NMe2 (also: TFA salt) [PPI-993: TFA • H-(lvffa)-dimethylamide]
The “Nucleation assay Δ lag at 5 µM compound” value of the first is higher: 3 ratio of lag time to control for the first, 1 ratio of lag time to control for the second.

First: {N,N‑diethyl}-[dA][dF][dF][dV][dL]-NH2 (also: TFA salt) [PPI-1006: TFA • N,N-diethyl-(affvl)-NH2]
Second: {N‑methyl}-G[dA][dF][dF][dV][dL]-NH2 (also: TFA salt) [PPI-968: TFA • N-methyl-(Gaffvl)-NH2]
The “Nucleation assay Δ lag at 5 µM compound” value of the first is lower: 1 ratio of lag time to control for the first, > 5 ratio of lag time to control for the second.

{N,N‑dimethyl}-[dL][dV][dF][dF][dL]-NH2 (also: TFA salt) [PPI-1007: TFA • N,N-dimethyl-(lvffl)-NH2] was tested, and the “Nucleation assay Δ lag at 0.3 µM compound (row marked *: measured at 3, 1 and 0.3 µM)” value was 3 ratio of lag time to control.

For {N,N‑dimethyl}-[dL][dV][dF][dF][dL]-NH2 (also: TFA salt) [PPI-1007: TFA • N,N-dimethyl-(lvffl)-NH2], the “Nucleation assay Δ lag at 0.6 µM compound (row marked #: measured at 2.5, 1.25 and 0.6 µM)” value was 1.5 ratio of lag time to control.

In the case of {N,N‑dimethyl}-[dL][dV][dF][dF][dL]-NH2 (also: TFA salt) [PPI-1007: TFA • N,N-dimethyl-(lvffl)-NH2], the “Nucleation assay Δ lag at 1 µM compound (row marked *: measured at 3, 1 and 0.3 µM)” value is reported as 4 ratio of lag time to control.

With {N,N‑dimethyl}-[dL][dV][dF][dF][dL]-NH2 (also: TFA salt) [PPI-1007: TFA • N,N-dimethyl-(lvffl)-NH2] the “Nucleation assay Δ lag at 1.25 µM compound (row marked #: measured at 2.5, 1.25 and 0.6 µM)” value was 1.5 ratio of lag time to control.

With {N,N‑dimethyl}-[dL][dV][dF][dF][dL]-NH2 (also: TFA salt) [PPI-1007: TFA • N,N-dimethyl-(lvffl)-NH2] the “Nucleation assay Δ lag at 2.5 µM compound (row marked #: measured at 2.5, 1.25 and 0.6 µM)” value was 1.5 ratio of lag time to control.

For {N,N‑dimethyl}-[dL][dV][dF][dF][dL]-NH2 (also: TFA salt) [PPI-1007: TFA • N,N-dimethyl-(lvffl)-NH2], the “Nucleation assay Δ lag at 3 µM compound (row marked *: measured at 3, 1 and 0.3 µM)” value was 4 ratio of lag time to control.
